Patent US20180196058A1

Target: Recombinant human IFN-gamma (eBioscience) (human) (UniProt P01579)
Assay: sandwich on beads, LC MS/MS of released iCOREs; IFN-gamma iCORE peak against the peak of the iCORE on the anti-TNF-alpha detection antibody

Recombinant human IFN-gamma (eBioscience) (human), sequence (P01579 24-166 limits assumed): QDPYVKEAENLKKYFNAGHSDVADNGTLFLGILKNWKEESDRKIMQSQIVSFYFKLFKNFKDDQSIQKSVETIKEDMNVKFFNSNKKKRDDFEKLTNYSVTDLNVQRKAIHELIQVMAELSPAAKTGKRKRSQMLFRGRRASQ

signal to noise: 10
Substance: iCORE-labeled detection antibody against human IFN-gamma, clone 4S.B3 (eBioscience)
